Source: PMC10755861, “Structural analysis and functional evaluation of the disordered ß–hexosyltransferase region from Hamamotoa (Sporobolomyces) singularis” (Frontiers in Bioengineering and Biotechnology, 2023)

B1: rBHT(23–594)-HIS, recombinant ß-hexosyltransferase from Hamamotoa (Sporobolomyces) singularis, residues 23–594 (enzyme, UniProt Q564N5 23-594, looked up)
chain: VTYPGAIPLSLTSNYETPSPTAIPLEPTPTATGTAELDALWNLVEAQYPVQTAAVTTLVTVPDDYKFEADPPSYALAGYETSEIAGLKFPKGFKFGVAGAAIQVEGAAKAEGRGPSTWDYLCHHYASTQCNNYDPDITTNHYYLYPLDFARLQHLGINTYSFSISWTRIYPLGAGYVNEAGLAHYDAVIHSAKKYGLEPVGTVFHWDTPLSLMLKYGAWQDTGDQIVKDFVTYATTVFKRYGNEVKTWFTFNEPRVFCSQNSGLPYNLTYPEGINSTSAVFRCTYNVLKAHGHAVKVYRDLVASGTIAAGEIGFKSDDNYPIPARPGNADDEESAKRHEAFRIGIFAQPVYGNGDYPDVVKETVGDMLPALTDEDKGYIKGSGDIFAIDGYRTDISHAALNGIANCIRNQSDPNWPVCEEGSDPFAHVYPSGFAIGQSADPLSSWLVNSAPFIRDQLKFLTQTYPAKGGIYFSEFGWAEDAEYDRQLLYQITWDGLRTQYLTDYLSQLLLAVHKDGINLRGALTWSFVDNWEWGLGMQQKFGFQFVNQSDPDLTRTFKLSAHAYAQFGRNHL
modifications: N-glycosylation sites N289, N297, N431, N569 (NAG in the crystal structure); phosphorylation sites found in the crystal structure: T56, T74, T79
notes: Expressed behind the S. cerevisiae alpha factor pre-pro leader (MFα) of pPIC9; the forward primer encodes KR-EAEA before residue 23, so some leader residues (EAEA) may be left on the N-terminus after processing (surmise); Residues 23-53 lack electron density in PDB 7L74; also called rBHT(23–594)-6XHIS; BglA; source: K. phaffii GS115, secreted into the culture medium, purified (HISTrap HP Nickel …)
B2: rBHT(32–594)-HIS, recombinant ß-hexosyltransferase from Hamamotoa (Sporobolomyces) singularis, residues 32–594 (enzyme, UniProt Q564N5 32-594, looked up)
chain: SLTSNYETPSPTAIPLEPTPTATGTAELDALWNLVEAQYPVQTAAVTTLVTVPDDYKFEADPPSYALAGYETSEIAGLKFPKGFKFGVAGAAIQVEGAAKAEGRGPSTWDYLCHHYASTQCNNYDPDITTNHYYLYPLDFARLQHLGINTYSFSISWTRIYPLGAGYVNEAGLAHYDAVIHSAKKYGLEPVGTVFHWDTPLSLMLKYGAWQDTGDQIVKDFVTYATTVFKRYGNEVKTWFTFNEPRVFCSQNSGLPYNLTYPEGINSTSAVFRCTYNVLKAHGHAVKVYRDLVASGTIAAGEIGFKSDDNYPIPARPGNADDEESAKRHEAFRIGIFAQPVYGNGDYPDVVKETVGDMLPALTDEDKGYIKGSGDIFAIDGYRTDISHAALNGIANCIRNQSDPNWPVCEEGSDPFAHVYPSGFAIGQSADPLSSWLVNSAPFIRDQLKFLTQTYPAKGGIYFSEFGWAEDAEYDRQLLYQITWDGLRTQYLTDYLSQLLLAVHKDGINLRGALTWSFVDNWEWGLGMQQKFGFQFVNQSDPDLTRTFKLSAHAYAQFGRNHL
notes: ß-hexosyltransferase (BHT, BglA) of Hamamotoa (Sporobolomyces) singularis, 594-residue polypeptide, residues 32-594; Expressed behind the MFα pre-pro leader of pPIC9 (primer encodes KR-EAEA before residue 32; leftover leader residues are a surmise); Glycosylated enzyme; also called GS115::MFα-rBht(32–594)-HIS; JB223; not shown: His6, C-terminal, kept
B3: rBHT(54–594)-HIS, recombinant ß-hexosyltransferase from Hamamotoa (Sporobolomyces) singularis, residues 54–594 (enzyme, UniProt Q564N5 54-594, looked up)
chain: TGTAELDALWNLVEAQYPVQTAAVTTLVTVPDDYKFEADPPSYALAGYETSEIAGLKFPKGFKFGVAGAAIQVEGAAKAEGRGPSTWDYLCHHYASTQCNNYDPDITTNHYYLYPLDFARLQHLGINTYSFSISWTRIYPLGAGYVNEAGLAHYDAVIHSAKKYGLEPVGTVFHWDTPLSLMLKYGAWQDTGDQIVKDFVTYATTVFKRYGNEVKTWFTFNEPRVFCSQNSGLPYNLTYPEGINSTSAVFRCTYNVLKAHGHAVKVYRDLVASGTIAAGEIGFKSDDNYPIPARPGNADDEESAKRHEAFRIGIFAQPVYGNGDYPDVVKETVGDMLPALTDEDKGYIKGSGDIFAIDGYRTDISHAALNGIANCIRNQSDPNWPVCEEGSDPFAHVYPSGFAIGQSADPLSSWLVNSAPFIRDQLKFLTQTYPAKGGIYFSEFGWAEDAEYDRQLLYQITWDGLRTQYLTDYLSQLLLAVHKDGINLRGALTWSFVDNWEWGLGMQQKFGFQFVNQSDPDLTRTFKLSAHAYAQFGRNHL
notes: ß-hexosyltransferase (BHT, BglA) of Hamamotoa (Sporobolomyces) singularis, 594-residue polypeptide, residues 54-594; Expressed behind the MFα pre-pro leader of pPIC9 (primer encodes KR-EAEA before residue 54; leftover leader residues are a surmise); Glycosylated enzyme; also called GS115::MFα-rBht(54–594)-HIS; JB224; not shown: His6, C-terminal, kept
B4: rBHT(57–594)-HIS, recombinant ß-hexosyltransferase from Hamamotoa (Sporobolomyces) singularis, residues 57–594 (enzyme, UniProt Q564N5 57-594, looked up)
chain: AELDALWNLVEAQYPVQTAAVTTLVTVPDDYKFEADPPSYALAGYETSEIAGLKFPKGFKFGVAGAAIQVEGAAKAEGRGPSTWDYLCHHYASTQCNNYDPDITTNHYYLYPLDFARLQHLGINTYSFSISWTRIYPLGAGYVNEAGLAHYDAVIHSAKKYGLEPVGTVFHWDTPLSLMLKYGAWQDTGDQIVKDFVTYATTVFKRYGNEVKTWFTFNEPRVFCSQNSGLPYNLTYPEGINSTSAVFRCTYNVLKAHGHAVKVYRDLVASGTIAAGEIGFKSDDNYPIPARPGNADDEESAKRHEAFRIGIFAQPVYGNGDYPDVVKETVGDMLPALTDEDKGYIKGSGDIFAIDGYRTDISHAALNGIANCIRNQSDPNWPVCEEGSDPFAHVYPSGFAIGQSADPLSSWLVNSAPFIRDQLKFLTQTYPAKGGIYFSEFGWAEDAEYDRQLLYQITWDGLRTQYLTDYLSQLLLAVHKDGINLRGALTWSFVDNWEWGLGMQQKFGFQFVNQSDPDLTRTFKLSAHAYAQFGRNHL
notes: ß-hexosyltransferase (BHT, BglA) of Hamamotoa (Sporobolomyces) singularis, 594-residue polypeptide, residues 57-594; Expressed behind the MFα pre-pro leader of pPIC9 (primer encodes KR-EAEA before residue 57; leftover leader residues are a surmise); Glycosylated enzyme; also called GS115::MFα-rBht(57–594)-HIS; JB225; not shown: His6, C-terminal, kept

How the values were obtained:
[1] = target: the molecule itself; test: SAXS; rBHT(23–594)-HIS in solution at 1 mg/mL and 4 mg/mL; molecular mass by the method of Rambo and Tainer
[2] = target: the molecule itself; test: SEC; purified variants; single peak, retention time 12.5 min, calculated Mw 150 kDa; data not shown

Row | Protein | stoichiometry N [1] | stoichiometry N [2]
1 | B1 | 2 | –
2 | B2 | – | 2
3 | B3 | – | 2
4 | B4 | – | 2
